Source: patent US20060172380

Test system: TAB1 (437-504)

TAK1-HA
in vitro kinase assay of immunoprecipitated TAK1 (activation of XMEK2 (SEK1), phosphorylation of KN-p38 (MPK2)): TAB1 increases TAK1 kinase activity
